B1: glmS ribozyme (parent)
chain: AUAAAAGCGCCAGAACUACAGAAAUGUAGUUGACGAGGAGGAGGUUUAUCGAAUUUUCGGCGGAUGCCUCCAAA

Common to all, as to settings: with glucosamine-6-phosphate
The variants in data set [1] derive from B1. Nature of the data set: kcat; higher = faster cleavage; RNA array. Summed up:
(§1)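 Glucosamine-6-phosphate (40 μM to 10 mM) in HEPES/KCl/Mg(OAc)2 buffer was flowed over sequenced MiSeq chips, and tiles were imaged over ~14 h. Barcoded ribozyme variants there had been transcribed in situ by E. coli RNA polymerase and were tracked through a hybridised Cy3 probe at 37 °C. One- or two-exponential decay fits to per-tile medians, normalised to baseline and to non-cleaving reference variants, gave kobs. kcat and KM came from weighted Michaelis–Menten fits across concentrations.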

In data set [2] the parent is B1. Nature of the data set: self-cleavage kobs at 40 uM GlcN6P; higher = faster cleavage; RNA array. The gist of the method:
as §1

Data set [3] covers variants of B1. Nature of the data set: self-cleavage kobs at 160 uM GlcN6P; higher = faster cleavage; RNA array. Summed up: as §1
The variants in data set [4] derive from B1. Nature of the data set: self-cleavage kobs at 640 uM GlcN6P; higher = faster cleavage; RNA array. Summed up:
as §1

The variants in data set [5] derive from B1. Nature of the data set: self-cleavage kobs at 2500 uM GlcN6P; higher = faster cleavage; RNA array. The gist of the method: as §1
In data set [6] the parent is B1. Nature of the data set: self-cleavage kobs at 10000 uM GlcN6P; higher = faster cleavage; RNA array. Summed up:
as §1

Variants of B1 are the subject of data set [7]. Nature of the data set: KM; higher = weaker cofactor use; RNA array. The gist of the method:
as §1

We go through 14 variants from the supplement of paper PMC7125110.

± gives the standard error. For some of these results: This sample holds only a part of the variants without activity. Bounds are passed on as bounds.

A word on the kcat: it is the number of substrate molecules converted per active site and unit of time at saturation. Take G29C A64G: the kcat in data set [1] is 0.00121 ± 0.00056 s⁻¹. Besides, the “self-cleavage kobs at 40 uM GlcN6P” value in data set [2] is 3.98e-05 ± 1.1e-05 s⁻¹. Moreover, the “self-cleavage kobs at 160 uM GlcN6P” value in data set [3] came out at 0.000126 ± 2.9e-05 s⁻¹. For the same variant, the “self-cleavage kobs at 640 uM GlcN6P” value in data set [4] worked out at 0.000339 ± 5.2e-05 s⁻¹. In addition, in data set [5], the “self-cleavage kobs at 2500 uM GlcN6P” value was determined as 0.000495 ± 0.00014 s⁻¹. Also, the “self-cleavage kobs at 10000 uM GlcN6P” value in data set [6] is 0.00181 ± 0.00034 s⁻¹.
As a reminder, the KM is the concentration of substrate that gives half-maximal velocity. On to A15G G40U, for which the kcat in data set [1] is 0.00552 ± 0.00099 s⁻¹. Besides, in data set [7], the KM worked out at 1.33 ± 0.36 mM. Further, the “self-cleavage kobs at 40 uM GlcN6P” value in data set [2] is 0.000202 ± 2.1e-05 s⁻¹. Further, the “self-cleavage kobs at 160 uM GlcN6P” value in data set [3] stood at 0.000466 ± 6.2e-05 s⁻¹. Moreover, the “self-cleavage kobs at 640 uM GlcN6P” value in data set [4] turned out to be 0.00181 ± 0.0002 s⁻¹. Further, in data set [5], the “self-cleavage kobs at 2500 uM GlcN6P” value came out at 0.00448 ± 0.00068 s⁻¹. Moreover, the “self-cleavage kobs at 10000 uM GlcN6P” value in data set [6] was determined as 0.00473 ± 0.00045 s⁻¹.
Turning to A64G U69G, the kcat in data set [1] was 4.12e-05 ± 5.6e-06 s⁻¹. The “self-cleavage kobs at 640 uM GlcN6P” value in data set [4] was determined as 4.4e-05 ± 1.2e-05 s⁻¹. Moreover, the “self-cleavage kobs at 2500 uM GlcN6P” value in data set [5] was determined as 4.93e-05 ± 1.2e-05 s⁻¹. Besides, the “self-cleavage kobs at 10000 uM GlcN6P” value in data set [6] was found to be 3.35e-05 ± 8.6e-06 s⁻¹.
For the variant G32U G66A, the kcat in data set [1] came out at 0.000468 ± 5.1e-05 s⁻¹. The KM in data set [7] amounted to 3.02 ± 0.56 mM. Besides, the “self-cleavage kobs at 640 uM GlcN6P” value in data set [4] was 8.47e-05 ± 1e-05 s⁻¹. Further, the “self-cleavage kobs at 2500 uM GlcN6P” value in data set [5] stood at 0.00021 ± 2.9e-05 s⁻¹. The “self-cleavage kobs at 10000 uM GlcN6P” value in data set [6] was 0.000358 ± 4.3e-05 s⁻¹.
As to U49G U54A, the kcat in data set [1] stood at 0.00122 ± 0.00034 s⁻¹. For the same variant, the Michaelis constant (KM) in data set [7] was found to be 3.17 ± 1.4 mM. Moreover, the “self-cleavage kobs at 160 uM GlcN6P” value in data set [3] amounted to 9.47e-05 ± 2.3e-05 s⁻¹. Besides, the “self-cleavage kobs at 640 uM GlcN6P” value in data set [4] was determined as 0.000176 ± 3.6e-05 s⁻¹. Moreover, in data set [6], the “self-cleavage kobs at 10000 uM GlcN6P” value is 0.000941 ± 0.00014 s⁻¹.
Turning to U30C A36C, in data set [1], the catalytic constant (kcat) is under 1e-05 s⁻¹. Besides, the “self-cleavage kobs at 40 uM GlcN6P” value in data set [2] was under 1e-05 s⁻¹. In addition, in data set [5], the “self-cleavage kobs at 2500 uM GlcN6P” value was under 1e-05 s⁻¹. For the same variant, the “self-cleavage kobs at 10000 uM GlcN6P” value in data set [6] was under 1e-05 s⁻¹.
Regarding U56A C71A, the turnover number (kcat) in data set [1] turned out to be 0.00492 ± 0.0022 s⁻¹. Moreover, the “self-cleavage kobs at 40 uM GlcN6P” value in data set [2] is 9.35e-05 ± 1.1e-05 s⁻¹. For the same variant, the “self-cleavage kobs at 160 uM GlcN6P” value in data set [3] is 0.000174 ± 3.4e-05 s⁻¹. For the same variant, the “self-cleavage kobs at 640 uM GlcN6P” value in data set [4] is 0.000881 ± 0.0001 s⁻¹. Moreover, the “self-cleavage kobs at 2500 uM GlcN6P” value in data set [5] worked out at 0.00216 ± 0.00042 s⁻¹. For the same variant, the “self-cleavage kobs at 10000 uM GlcN6P” value in data set [6] worked out at 0.00398 ± 0.00071 s⁻¹.
As to C11U C50A, in data set [1], the catalytic constant (kcat) was under 1e-05 s⁻¹. Also, the “self-cleavage kobs at 160 uM GlcN6P” value in data set [3] was under 1e-05 s⁻¹. Moreover, the “self-cleavage kobs at 10000 uM GlcN6P” value in data set [6] is under 1e-05 s⁻¹.
Regarding A39U U45C, the kcat in data set [1] was found to be 0.00276 ± 0.0012 s⁻¹. Also, in data set [3], the “self-cleavage kobs at 160 uM GlcN6P” value is 8.23e-05 ± 1.6e-05 s⁻¹. The “self-cleavage kobs at 640 uM GlcN6P” value in data set [4] came to 0.000268 ± 4.7e-05 s⁻¹. In addition, the “self-cleavage kobs at 2500 uM GlcN6P” value in data set [5] worked out at 0.000599 ± 0.00011 s⁻¹. The “self-cleavage kobs at 10000 uM GlcN6P” value in data set [6] turned out to be 0.002 ± 0.00034 s⁻¹.
In the case of G13C G32A, the turnover number (kcat) in data set [1] was found to be 0.00943 ± 0.0032 s⁻¹. In addition, in data set [7], the Michaelis-Menten constant (KM) turned out to be 3.62 ± 1.6 mM. The “self-cleavage kobs at 40 uM GlcN6P” value in data set [2] stood at 0.000142 ± 1.5e-05 s⁻¹. In addition, the “self-cleavage kobs at 160 uM GlcN6P” value in data set [3] turned out to be 0.000338 ± 6.2e-05 s⁻¹. Also, the “self-cleavage kobs at 640 uM GlcN6P” value in data set [4] amounted to 0.00124 ± 0.00016 s⁻¹. The “self-cleavage kobs at 2500 uM GlcN6P” value in data set [5] was 0.00305 ± 0.00052 s⁻¹. Further, the “self-cleavage kobs at 10000 uM GlcN6P” value in data set [6] amounted to 0.00781 ± 0.00085 s⁻¹.
Consider A14G U57C, for which, in data set [1], the kcat was found to be 0.000646 ± 0.00012 s⁻¹. Also, the Michaelis constant (KM) in data set [7] was 2.53 ± 0.74 mM. The “self-cleavage kobs at 160 uM GlcN6P” value in data set [3] is 3.29e-05 ± 1.4e-05 s⁻¹. The “self-cleavage kobs at 640 uM GlcN6P” value in data set [4] stood at 0.000142 ± 1.8e-05 s⁻¹. In addition, the “self-cleavage kobs at 2500 uM GlcN6P” value in data set [5] turned out to be 0.000276 ± 4.7e-05 s⁻¹. For the same variant, the “self-cleavage kobs at 10000 uM GlcN6P” value in data set [6] stood at 0.000577 ± 0.0001 s⁻¹.
On to A12U A39C, for which the turnover number (kcat) in data set [1] was 0.00341 ± 0.00095 s⁻¹. Besides, in data set [7], the Michaelis constant (KM) worked out at 2.77 ± 1.1 mM. In addition, the “self-cleavage kobs at 40 uM GlcN6P” value in data set [2] was 9.51e-05 ± 1.7e-05 s⁻¹. Also, in data set [3], the “self-cleavage kobs at 160 uM GlcN6P” value was determined as 0.000149 ± 2.7e-05 s⁻¹. The “self-cleavage kobs at 640 uM GlcN6P” value in data set [4] was found to be 0.000656 ± 8.7e-05 s⁻¹. The “self-cleavage kobs at 2500 uM GlcN6P” value in data set [5] turned out to be 0.00163 ± 0.00023 s⁻¹. In addition, the “self-cleavage kobs at 10000 uM GlcN6P” value in data set [6] amounted to 0.00266 ± 0.00035 s⁻¹.
Consider G13C A39G, for which the kcat in data set [1] was 0.000183 ± 2.5e-05 s⁻¹. Besides, the Michaelis-Menten constant (KM) in data set [7] was determined as 4.23 ± 1.3 mM. Moreover, in data set [5], the “self-cleavage kobs at 2500 uM GlcN6P” value is 7.1e-05 ± 1.4e-05 s⁻¹. The “self-cleavage kobs at 10000 uM GlcN6P” value in data set [6] is 0.000128 ± 2e-05 s⁻¹.
As for G41C U54A, the catalytic constant (kcat) in data set [1] came to 8.93e-05 ± 2e-05 s⁻¹. For the same variant, in data set [4], the “self-cleavage kobs at 640 uM GlcN6P” value is 7.27e-05 ± 1.6e-05 s⁻¹. In addition, in data set [5], the “self-cleavage kobs at 2500 uM GlcN6P” value was 7.27e-05 ± 1.5e-05 s⁻¹. The “self-cleavage kobs at 10000 uM GlcN6P” value in data set [6] is 8.37e-05 ± 2.2e-05 s⁻¹.
